# Measured values: patent US20090074722A1, “Products and methods for treating PTP lar diseases” (MAX-PLANCK-GESELLSCHAFT ZUR, priority 1999, published 2009)
# B1: GST-PTP LAR cytoplasmic: GST fusion protein comprising the entire cytoplasmic domain (amino acids 1259-1881) of human PTP LAR (protein)
# chain: PEMLWVTGPVLAVILIILIVIAILLFKRKRTHSPSSKDEQSIGLKDSLLAHSSDPVEMRRLNYQTPGMRDHPPIPITDLADNIERLKANDGLKFSQEYESIDPGQQFTWENSNLEVNKPKNRYANVIAYDHSRVILTSIDGVPGSDYINANYIDGYRKQNAYIATQGPLPETMGDFWRMVWEQRTATVVMMTRLEEKSRVKCDQYWPARGTETCGLIQVTLLDTVELATYTVRTFALHKSGSSEKRELRQFQFMAWPDHGVPEYPTPILAFLRRVKACNPLDAGPMVVHCSAGVGRTGCFIVIDAMLERMKHEKTVDIYGHVTCMRSQRNYMVQTEDQYVFIHEALLEAATCGHTEVPARNLYAHIQKLGQVPPGESVTAMELEFKLLASSKAHTSRFISANLPCNKFKNRLVNIMPYELTRVCLQPIRGVEGSDYINASFLDGYRQQKAYIATQGPLAESTEDFWRMLWEHNSTIIVMLTKLREMGREKCHQYWPAERSARYQYFVVDPMAEYNMPQYILREFKVTDARDGQSRTIRQFQFTDWPEQGVPKTGEGFIDFIGQVHKTKEQFGQDGPITVHCSAGVGRTGVFITLSIVLERMRYEGVVDMFQTVKTLRTQRPAM
# Biological target: T1, β-catenin (Homo sapiens, UniProt P35222)
# T1 construct: expressed in transfected cells; host or cells: human embryonic kidney 293 cells, transient, pervanadate-treated, used as lysate; the GST-PTP LARi partner was made in E. coli
# T1 sequence (P35222 2-781): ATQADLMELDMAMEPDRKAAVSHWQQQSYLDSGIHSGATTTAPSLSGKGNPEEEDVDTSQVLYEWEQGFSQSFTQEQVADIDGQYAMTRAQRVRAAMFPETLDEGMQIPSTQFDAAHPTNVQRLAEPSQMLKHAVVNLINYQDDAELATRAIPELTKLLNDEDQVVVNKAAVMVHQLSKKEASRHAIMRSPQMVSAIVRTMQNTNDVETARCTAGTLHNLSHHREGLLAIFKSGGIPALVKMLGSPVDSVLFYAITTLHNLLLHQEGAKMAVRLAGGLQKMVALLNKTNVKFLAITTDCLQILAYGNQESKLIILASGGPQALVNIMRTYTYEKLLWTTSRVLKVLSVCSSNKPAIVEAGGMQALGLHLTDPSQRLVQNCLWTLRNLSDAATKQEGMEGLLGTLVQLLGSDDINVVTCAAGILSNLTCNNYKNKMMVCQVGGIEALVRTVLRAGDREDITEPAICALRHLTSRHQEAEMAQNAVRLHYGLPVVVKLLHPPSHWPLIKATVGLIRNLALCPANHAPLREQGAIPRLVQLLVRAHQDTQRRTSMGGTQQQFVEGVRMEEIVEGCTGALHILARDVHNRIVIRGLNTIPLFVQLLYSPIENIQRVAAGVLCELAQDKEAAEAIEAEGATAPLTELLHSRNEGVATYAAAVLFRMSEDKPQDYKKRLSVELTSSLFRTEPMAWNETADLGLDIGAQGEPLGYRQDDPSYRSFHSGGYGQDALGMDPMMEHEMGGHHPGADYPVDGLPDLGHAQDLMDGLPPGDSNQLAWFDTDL
# Assay: In vitro binding assay (GST pull-down), β-catenin
# Conditions: lysates of pervanadate treated 293 cells overexpressing β-catenin
# Procedure: After 24 h of serum starvation, the cells were stimulated with pervanadate for 10 minutes before lysis. Equal amounts of lysats were incubated with the GST-PTP LAR cytoplasmic fusion protein (GST-PTP LARi) or a threefold molar excess of GST. Lysates of control vector transfected 293 cells were incubated with the GST-PTP LAR cytoplasmic fusion protein (GST-PTP LARi). Complexes were immobilized on glutathione-sepharose, and precipitates were separated by SDS-PAGE. Bound proteins were analyzed by Western blotting with an anti-β-catenin antibody (left) or an antibody against plakoglobin (right). Arrows indicate the proteins of interest. Molecular mass standards in kilodaltons are shown on the left. […]
# To investigate the potential association of PTP LAR with the cadherin/catenin-complex in intact cells, subconfluent human MCF7 cells were stimulated with EGF, were lysed, and were immunoprecipitated with antibodies either against PTP LAR or the cadherin/catenin-complex. Western blotting analysis with specific antibodies to β-catenin and E-cadherin (FIG. 5A) or plakoglobin and E-cadherin (FIG. 5B) detected these proteins in anti-human PTP LAR immunoprecipitates with the monoclonal antibody 11.1A against the extracellular domain of human PTP LAR and vice versa. […]
molecule,measurement,value
B1,association with β-catenin,associate specifically
